Data published in US20120137392A1.

Molecular target: eJMC^Y859A (eJMC mutated in the first amino acid of the YXXΦ sequence) fused to GFP (Arabidopsis thaliana), Q9FL28
Experiment: cell-based or functional assay

Chain of eJMC^Y859A (eJMC mutated in the first amino acid of the YXXΦ sequence) fused to GFP (Arabidopsis thaliana), Q9FL28 (Q9FL28 other isoform, or with tags, fused parts or gaps Y859A Y859A): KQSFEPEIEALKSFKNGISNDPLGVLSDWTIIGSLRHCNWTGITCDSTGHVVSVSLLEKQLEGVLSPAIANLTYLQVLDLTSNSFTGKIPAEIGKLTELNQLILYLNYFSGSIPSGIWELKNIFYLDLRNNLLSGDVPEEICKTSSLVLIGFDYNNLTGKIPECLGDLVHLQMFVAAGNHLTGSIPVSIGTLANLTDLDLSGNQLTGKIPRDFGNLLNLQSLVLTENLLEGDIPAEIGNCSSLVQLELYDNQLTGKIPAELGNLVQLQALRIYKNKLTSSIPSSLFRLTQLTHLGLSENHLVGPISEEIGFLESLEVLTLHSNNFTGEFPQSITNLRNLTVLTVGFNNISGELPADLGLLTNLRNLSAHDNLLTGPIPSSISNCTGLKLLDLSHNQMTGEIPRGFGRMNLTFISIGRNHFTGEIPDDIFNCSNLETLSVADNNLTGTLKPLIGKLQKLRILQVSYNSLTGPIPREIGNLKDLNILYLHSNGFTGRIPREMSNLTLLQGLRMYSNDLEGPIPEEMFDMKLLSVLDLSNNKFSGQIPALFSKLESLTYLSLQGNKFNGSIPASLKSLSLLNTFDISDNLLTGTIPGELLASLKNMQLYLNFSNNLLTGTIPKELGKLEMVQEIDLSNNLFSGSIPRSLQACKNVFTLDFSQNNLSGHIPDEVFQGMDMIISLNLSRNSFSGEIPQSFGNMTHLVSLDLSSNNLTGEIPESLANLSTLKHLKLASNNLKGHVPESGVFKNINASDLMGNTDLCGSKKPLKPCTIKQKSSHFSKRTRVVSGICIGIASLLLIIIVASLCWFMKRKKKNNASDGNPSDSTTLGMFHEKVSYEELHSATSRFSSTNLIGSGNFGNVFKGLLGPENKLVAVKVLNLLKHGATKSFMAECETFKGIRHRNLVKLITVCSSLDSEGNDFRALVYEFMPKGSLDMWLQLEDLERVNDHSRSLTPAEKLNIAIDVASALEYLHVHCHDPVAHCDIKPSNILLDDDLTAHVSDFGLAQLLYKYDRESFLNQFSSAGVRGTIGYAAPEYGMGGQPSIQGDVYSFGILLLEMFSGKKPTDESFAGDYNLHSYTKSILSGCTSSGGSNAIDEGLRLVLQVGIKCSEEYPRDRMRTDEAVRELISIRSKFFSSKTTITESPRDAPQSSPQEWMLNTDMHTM

## QRLSTGSRINSAKDDAAGLQIA [flg22 (peptide derived from bacterial flagellin)]
  ethylene accumulation, agroinfiltrated tobacco leaf explants, against the negative control: 4.8 times
